Experimental data from patent US20170052184A1 (published 2017).

How the values were obtained:
[1] = molecular target: T1, HCV Core1-169 (HCV-1, UniProt P26664 1-169); assay: EIA, core1-169 captured by mAb 14-153-229
T1 construct: also called recombinant HCV core antigen
T1 sequence: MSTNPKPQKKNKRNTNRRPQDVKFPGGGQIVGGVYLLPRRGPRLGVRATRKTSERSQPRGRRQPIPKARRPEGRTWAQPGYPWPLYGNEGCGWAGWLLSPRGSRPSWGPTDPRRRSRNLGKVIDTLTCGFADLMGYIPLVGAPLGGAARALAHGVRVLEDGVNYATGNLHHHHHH

[2] = molecular target: T1, HCV Core1-169; assay: EIA, core1-169 coated on plate
Also: test concentration or dose not given here.

B1: HCV 208B-1024 (antibody, V domains shown)
VH: EVQLVESGGDLVKPGGSLKLSCAASGFTFSNYGMSWVRQTPDKRLEWVATISSGGSYSYYPDSVKGRFTISRDNAKNILYLQMSSLKSEDTAMYYCASLYYGYGDYWGQGTAFTVSS
VL: DVLMTQTPLSLPVSLGDQASISCRSSQSIVHSNGNTYLEWYLQKLGQSPKLLIYRVSNRFSGVPDRFSGSGSGTDFTLKISRVEAEDLGVYYCFQGSHVPWTFGGGTKLEIKR
OD (A492) [1]: 0.31 OD
OD (A492) [2]: 0.6 OD

B2: HCV 208A-638 (antibody, V domains shown)
VH: QGQLQQPGAEFVKPGASLKLSCRASGYTFTSYWIHWVKQRPGQGLEWIGEVDPSDSYINQNEKFRGKATLTVDKSSSTAYMQLGSLTSEDSAVYYCARHYYGVLDSWGQGTALTVSS
VL: QIVLTQSPTIMSASLGERVTMTCTASSSVSSSYLHWFQQKPGSSPKLWIYSTSNLASGVPPRFSGSGSGTSYSLSISSVEAEDVATYYCLQFHRSPWTFGGGAKLEIKR
OD (A492) [1]: 2.24 OD
OD (A492) [2]: 1.07 OD

B3: HCV 208A-1064 (antibody, V domains shown)
VH: EVQLQQSGPELVKPGASVKISCKTSGYTFTEYAMHWMKQSHGKSLEWIGGINPTNGDTIYNQKFKDKAKLTVDRSSSTAYMELRSLTSDDSALFYCARRELDYFASWGQGTTLTVSS
VL: DIVLTQSPASLIVSLGQTATISCRASQSVSTSRFSYLHWIQQKPGQPPKLLIKYASNLESGVPVRFSGSGSGTDFTLNIHPVEEEDTATYFCQHSWEFPFTFGSGTKLKIKR
OD (A492) [1]: 1.57 OD
OD (A492) [2]: 0.94 OD

B4: HCV 208A-293 (antibody, V domains shown)
VH: EVQLQQSGPELVKPGASVKISCKASGFTFTEYAMHWMKQSHGKSLEWIGGINPTNGDAIYNQKFKDKAKLTVDRSSSTAYMELRSLTSDDSALFYCARRELDYFPSWGQGTTLTVSS
VL: DIVLTQSPASLIVSLGQRATISCRASQSVSTSRFSYVHWIQQKPGQPPKLLIKYASNLESGVPVRFSGSGSGTDFILNIHPVEEEDTATYFCQHSWEFPFTFGSGTKLEIKR
OD (A492) [1]: 2.31 OD
OD (A492) [2]: 1.41 OD

B5: HCV 208A-877 (antibody, V domains shown)
VH: QLQQSGPELVKPGASVKISCKTSGYTFTENAMHWVKQSRGKSLEWIGGVNPNNGDTVYTQKFKGKATLTVAKSSSTAYMELRTMTCEESTVYYCASREPDFFDYWGQGSSVTVSS
VL: QIVLTQSPAIMSVSPGEKVSMTCSASSSVTYMHWYQQKSGTSPKRWIYDTSELASGVPARFSGSGSGTTYSLTISSMEAEDAATYYCQQWSNKPLTFGAGTKLELKR
OD (A492) [1]: 1.25 OD
OD (A492) [2]: 0.9 OD

B6: HCV 208A-557 (antibody, V domains shown)
VH: QGQMQQSGAELVKPGASVKLSCKTSGFTFSSSYISWLKQKPGQSLEWIAWIYAGTGNTNYNQKFTDKAQLTVDTSSSTAYMQLSSLTTEDSAIYYCAISGTGFTYWGQGTLVTVSA
VL: DIALTQSPASLAVSLGQRATISCRASQSVSTSRYSYMHWYQQKPGQPPELLIKYASNLESGVPARFSGSGSGTDFTLNIHPVGEEDTATYYCQHSWDFPFTFGSGTKLEIKR
OD (A492) [1]: 2.39 OD
OD (A492) [2]: 1.4 OD

B7: HCV 208B-560 (antibody, V domains shown)
VH: EVQLQQSGPELEKPGASVKISCKTSGYTFTEYAMHWVKQSHGMSLEWIGGINPSNGNAIYNQIFKDKATLTVDRSSSTAYMGLRSLTFGDSGVYFCVRRQLDFFDYWGQGASLTVSS
VL: DIVVTQSPASLAVSLGQRATISCRASQSVSTSRYSYLHWYQQKPGQPPKLLIKYASNLESGVPARFSGSGSGTDFTLNIHPVGEEDTATYYCQHSWEFPFTFGSGTKLEIKR
OD (A492) [1]: 1.3 OD
OD (A492) [2]: 1.07 OD

B8: HCV 208A-134 (antibody, V domains shown)
VH: QGQMQQSGAELAKPGASVKLSCKTSGFTFSSSYISWLKQKPGQSLEWIAWIYAGTGNTNYNQKFTDKAQLTVDTSSSTAYMQLSSLTTEDSAIYYCAISGTGFTYWGQGTLVTVSA
VL: EVLMTQSPLSLPVSLGDQASISCRSSQSLEHTNGNTYLEWFLQRPGQPPKLLIYKVSSRFSGVPDRFSGSGSGTDFTLKISRVEAEDLGVYYCFQGSHVPFTFGSGTKLAIKR
OD (A492) [1]: 0.13 OD
OD (A492) [2]: 0.1 OD

B9: HCV 208A-830 (antibody, V domains shown)
VH: EVRLQQPGPEVEKPGASVKISCKTSGYTFTEYAIHWVKQSHGESLEWIGGINPSNGDPIYNQIFKDKATLTVDRSSNTAYMGLRSLTVGDSGVYFCVRRQLDYFDFWGQGASLTVSS
VL: DIVLTQSPASLAVSLGQRATISCRSSQSVSTSRYSYLHWYQQKPGQPPKLLIKYASNLESGVPARFSGSGSGTDFTLNIHPVGEEDPATYYCQHSWEFPFTFGSGTKLEIKR
OD (A492) [1]: 2.09 OD
OD (A492) [2]: 1.16 OD

B10: HCV 208A-920 (antibody, V domains shown)
VH: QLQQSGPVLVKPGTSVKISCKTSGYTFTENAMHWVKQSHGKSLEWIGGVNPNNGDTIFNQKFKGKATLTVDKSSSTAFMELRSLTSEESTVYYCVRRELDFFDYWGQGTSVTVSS
VL: DIVLTQSPASLAVSLGQRATISCRASQSVSTSRYSYMHWYQQKPGQPPKLLIKYASNLESGVPARFSGSGSGTDFTLNIHPVAEEDTAAYYCQHSWEFPFTFGSGTKLEIKR
OD (A492) [1]: 1.82 OD
OD (A492) [2]: 1.14 OD

B11: HCV 208B-556 (antibody, V domains shown)
VH: QLQQSGPVLVKPGASVMISCKTSGYTFTENAMHWVKQSHGKSLEWIGGVNPNNGDTIFNQKFKGKATLTVDKSSSTAFMEFRSLTSEESTVYYCVRRELDFFDYWGQGTSVTVSS
VL: DIVLTQSPASLAVSLGQRATISCRASQSVSTSRYSYMHWYQQKPGQPPKLLIKYASNLESGVPARFSGSGSGTDFTLNIHPVAEEDTATYYCQHSWEFPFTFGSGTKLEIKR
OD (A492) [1]: 1.35 OD
OD (A492) [2]: 0.74 OD

B12: HCV 208A-334 (antibody, V domains shown)
VH: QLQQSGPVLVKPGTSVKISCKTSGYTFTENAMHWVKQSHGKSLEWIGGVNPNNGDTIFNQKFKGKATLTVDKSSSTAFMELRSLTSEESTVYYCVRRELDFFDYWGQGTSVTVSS
VL: DIVLTQSPASLAVSLGQRATISCRASQSVSTSRYSYMHWYQQKPGQPPKLLIKYASNLESGVPARFSGSGSGTDFTLNIHPVAEEDTAAYYCQHSWGFPFTFGSGTKLEIKR
OD (A492) [1]: 1.9 OD
OD (A492) [2]: 1.28 OD

B13: HCV 208A-741 (antibody, V domains shown)
VH: QLQQSGPVLVKPGASVMISCKTSGYTFTENAMHWVKQSHGKSLEWIGGVNPNNGDTIFNQKFKGKATLTVDKSSSTAFMELRSLTSEESTVYYCVRRELDFFDYWGQGTSVTVSS
VL: DIVLTQSPASLAVSLGQRTTISCGASQSVSTSRFSYMHWYQQKPGQPPKLLIKYASNLESGVPARFSGSGSGTDFTLNIHPVAEEDTAAYYCQHSWEFPFTFGSGTKLEIKR
OD (A492) [1]: 1.9 OD
OD (A492) [2]: 1.2 OD

B14: HCV 208A-692 (antibody, V domains shown)
VH: QGQMQQSGAELAKPGASVKLSCKTSGFTFSSSYISWLKQKPGQSLEWIAWIFAGTGNTNYNQKFTDKAQLTVDTSSSTAYMQLSSLTTEDSAIYYCAISGTGFTYWGQGTLVTVSA
VL: EVLMTQSPLSLPVSLGDQASISCRSSQSLEHSNGNTYLEWFLQRPGQPPKLLIYKVSSRFSGVPDRFSGSGSGTDFTLKISRVEAEDLGVYYCFQGSHVPFTFGSGTKLAIKR
OD (A492) [1]: 0.57 OD
OD (A492) [2]: 0.07 OD

B15: HCV 208A-605 (antibody, V domains shown)
VH: EVQLQQSGPELEKPGASVKISCKTSGYTFTEYAIHWVKQSHGMSLEWIGGINPSNGNAIYNQIFKDKATLTVDRSSSTAYMGLRSLTFGDSGVYFCVRRQLDFFDYWGQGASLTVSS
VL: DIVVTQSPASLAVSLGQRATISCRASQSVSTSRYSYLHWYQQKPGQPPKLLIKYASNLESGVPARFSGSGSGTDFTLNIHPVGEEDTATYYCQHSWEFPFTFGSGTKLEIKR
OD (A492) [1]: 2.21 OD
OD (A492) [2]: 0.55 OD

B16: HCV 208A-126 (antibody, V domains shown)
VH: QLQQSGPVLVKPGASVMISCKTSGYTFTENAMHWVKQSHGKSLEWIGGVNPNNGDTIFNQKFKGKATLTVDKSSNTAFTELRSLPSEESTVYYCVRRGLDFFDYWGQGTSVTVSS
VL: DIVLTQSPASLAVSLGQRATISCRASQSVSTSRYSYMHWYQQKPGQPPKLLIKYASNLESGVPARFSGSGSGTDFTLNIHPVAEEDTAAYYCQHSWEFPFTFGSGTKLEIKR
OD (A492) [1]: 1.2 OD
OD (A492) [2]: 0.69 OD

B17: HCV 208A-222 (antibody, V domains shown)
VH: EVQLQQSGPELEKPGASVRISCKTSGYTFTEYAMHWVKQSHGKSLEWIGGINPNNGNAIYNQIFKDKATLTVDRSSSTAYMGLRSLTFGDSGVYFCVRRQLDYFDYWGQGASLTVSS
VL: DIVVTQSPASLAVSLGQRATISCRASQSVSTSRYSYLHWYQQKPGQPPKLLIKYASNLESGVPARFSGSGSGTDFTLNIHPVGEEDTATYYCQHSWEFPFTFGSGTKLEIKR
OD (A492) [1]: 2.07 OD
OD (A492) [2]: 1.06 OD

B18: HCV 208B-251 (antibody, V domains shown)
VH: QLQQSGPVLVKPGASVKISCKTSGYTFTENAMHWVKQSHGKSLEWIGGVNPNNGDTIYNQKFKGKATLTVDKSSSTAFMELRSLTSEESPVYFCVRRELDFFDYWGQGTSVTVSS
VL: DIVLTQSPASLAVSLGKKATISCRASQSVSTSRYSYMHWYQQKPGHPPKLLIKYASNLESGVPARFSGSGSGTDFTLNIHPVAEEDTAAYYCQHSWEFPFTFGSGTKLEIKR
OD (A492) [1]: 1.39 OD
OD (A492) [2]: 0.79 OD

B19: HCV 208A-110 (antibody, V domains shown)
VH: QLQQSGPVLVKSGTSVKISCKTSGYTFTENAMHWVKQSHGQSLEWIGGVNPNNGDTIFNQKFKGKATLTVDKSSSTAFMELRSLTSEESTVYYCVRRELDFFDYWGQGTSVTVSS
VL: DIVLTQSPASLAVSLGQRATISCRASQSVSTSRYSYMHWYQQKPGQPPKLLIKYASNLESGVPARFSGSGSGTDFTLNIHPVAEEDTAAYYCQHSWEFPFTFGSGTKLEIKR
OD (A492) [1]: 1.87 OD
OD (A492) [2]: 1.6 OD

B20: HCV 208A-133 (antibody, V domains shown)
VH: QLQQSGPVLVGPGASVMISCKTSGYTFTENAMHWVEQSHGKSLEWIGGVNPNNGDTIFNQKFKGKATLTVDKSSSTAFMEFRSLTSEESTVYYCVRRELDFFDYWGQGTSVTVSS
VL: DIVLTQSPASLAVSLGQRATISCRASQSVSTSRYSYMHWYQQKPGQPPKLLIKYASNLESGVPARFSGSGSGTDFTLNIHPVAEEDTATYYCQHSWEFPFTFGSGTKLEIKR
OD (A492) [1]: 1.46 OD
OD (A492) [2]: 1.73 OD

B21: HCV 208A-159 (antibody, V domains shown)
VH: QLQQSGPAQVKPGASVMISCKTSGYTFTENAMHWVKQSHGKSLEWIGGVNPNNGDTIFNQKFKDKAALTVDKSSSTAFMELRSLTSEESTVYYCVRRELDFFDYWGQGTSVTVSS
VL: DIVLTQSPASLAVSLGQRATISCRASQSVSTSRYSYVHWYQQKPGQPPKLLIKYAANLESGVPARFSGSGSGTDFTLNIHPVAEEDAAAYYCQHSWEFPFTFGSGTKLEIKR
OD (A492) [1]: 1.29 OD
OD (A492) [2]: 0.57 OD
